Results reported in the supplement of paper PMC9428881.
± gives the standard error.

Assay: background-corrected fluorescence of 3'-dye-labeled ssDNA relative to brightest sequence (3'-GCGCG) (fraction); higher = brighter dye fluorescence (less quenching)
In short: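 By light-directed phosphoramidite synthesis, single-stranded DNA ending in a 3' Cy3 or Cy5 dye beside each of 1024 permuted pentamers was built on glass slides. Scanning at 532 or 635 nm took place before and after overnight ethylenediamine/ethanol deprotection. Data are means of 10 features per array over at least 3 syntheses. Fluorescence is corrected for unlabeled-oligo background and scaled to the brightest sequence.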

With “TTTTTGCATCATGATGAGCATTTTTTTTTTTTTTTTGCCT [TCCGT]” as the sequence, how does the background-corrected fluorescence (dye: Cy3 (3' terminal)) read?
The background-corrected fluorescence was 0.444 ± 0.011.

And the background-corrected fluorescence (dye: Cy5 (3' terminal))?
The background-corrected fluorescence was 0.356 ± 0.021.

For “TTTTTTCAGCATGAGCAGCATTTTTTTTTTTTTTTGTCTT [TTCTG]”, which background-corrected fluorescence (dye: Cy3 (3' terminal)) is on record?
Its background-corrected fluorescence is 0.505 ± 0.017.

What about the background-corrected fluorescence (dye: Cy5 (3' terminal)) of the same sequence?
Its background-corrected fluorescence is 0.364 ± 0.03.

Which results are given for “TTTTTTCATGATGATGCGCATTTTTTTTTTTTTTTGCCAT [TACCG]”?
background-corrected fluorescence (dye: Cy3 (3' terminal)): 0.516 ± 0.048; background-corrected fluorescence (dye: Cy5 (3' terminal)): 0.404 ± 0.029

For “TTTTTTGATGCTGATCATGATTTTTTTTTTTTTTTCACGC [CGCAC]”, which background-corrected fluorescence (dye: Cy3 (3' terminal)) is on record?
The background-corrected fluorescence was 0.536 ± 0.021.

And the background-corrected fluorescence (dye: Cy5 (3' terminal))?
The background-corrected fluorescence was 0.438 ± 0.036.

Which results are given for “TTTTTTCATGCTCATGATGATTTTTTTTTTTTTTTGAGCC [CCGAG]”?
background-corrected fluorescence (dye: Cy3 (3' terminal)): 0.425 ± 0.012; background-corrected fluorescence (dye: Cy5 (3' terminal)): 0.312 ± 0.029

What does the source list for “TTTTTGCAGCATCATGATGATTTTTTTTTTTTTTTTTGCC [CCGTT]”?
background-corrected fluorescence (dye: Cy3 (3' terminal)): 0.41 ± 0.015; background-corrected fluorescence (dye: Cy5 (3' terminal)): 0.322 ± 0.059

Which background-corrected fluorescence (dye: Cy3 (3' terminal)) does the source give for “TTTTTTGCGCATGCTCATGATTTTTTTTTTTTTTTATAGC [CGATA]” here?
The background-corrected fluorescence was 0.519 ± 0.027.

What about the background-corrected fluorescence (dye: Cy5 (3' terminal)) of the same sequence?
Its background-corrected fluorescence is 0.407 ± 0.031.

For “TTTTTTGATGATGCGCAGCATTTTTTTTTTTTTTTCCATT [TTACC]”, which background-corrected fluorescence (dye: Cy3 (3' terminal)) is on record?
Its background-corrected fluorescence is 0.541 ± 0.041.

What about the background-corrected fluorescence (dye: Cy5 (3' terminal)) of the same sequence?
The background-corrected fluorescence was 0.357 ± 0.02.

For “TTTTTTGATGCTGATGCTCATTTTTTTTTTTTTTTCACAG [GACAC]”, which background-corrected fluorescence (dye: Cy3 (3' terminal)) is on record?
Its background-corrected fluorescence is 0.481 ± 0.031.

What about the background-corrected fluorescence (dye: Cy5 (3' terminal)) of the same sequence?
The background-corrected fluorescence was 0.384 ± 0.019.

With “TTTTTGCATCATCATCAGCATTTTTTTTTTTTTTTTGGGT” as the sequence, how does the background-corrected fluorescence (dye: Cy3 (3' terminal)) read?
The background-corrected fluorescence was 0.686 ± 0.028.

What about the background-corrected fluorescence (dye: Cy5 (3' terminal)) of the same sequence?
The background-corrected fluorescence was 0.586 ± 0.044.

What does the source list for “TTTTTTGCGCAGCATCATGCTTTTTTTTTTTTTTTATTGA [AGTTA]”?
background-corrected fluorescence (dye: Cy3 (3' terminal)): 0.643 ± 0.018; background-corrected fluorescence (dye: Cy5 (3' terminal)): 0.555 ± 0.03

For “TTTTTGCAGCATGATCATCATTTTTTTTTTTTTTTTTCGG [GGCTT]”, which background-corrected fluorescence (dye: Cy3 (3' terminal)) is on record?
The background-corrected fluorescence was 0.59 ± 0.022.

What about the background-corrected fluorescence (dye: Cy5 (3' terminal)) of the same sequence?
The background-corrected fluorescence was 0.485 ± 0.024.

Which results are given for “TTTTTTGATCATGCTGATGATTTTTTTTTTTTTTTCGACC [CCAGC]”?
background-corrected fluorescence (dye: Cy3 (3' terminal)): 0.4 ± 0.016; background-corrected fluorescence (dye: Cy5 (3' terminal)): 0.324 ± 0.03

For “TTTTTGCAGCATCATGAGCATTTTTTTTTTTTTTTTTGCT [TCGTT]”, which background-corrected fluorescence (dye: Cy3 (3' terminal)) is on record?
The background-corrected fluorescence was 0.482 ± 0.014.

What about the background-corrected fluorescence (dye: Cy5 (3' terminal)) of the same sequence?
Its background-corrected fluorescence is 0.361 ± 0.019.

What does the source list for “TTTTTGCATCATGATGATGATTTTTTTTTTTTTTTTGCCC [CCCGT]”?
background-corrected fluorescence (dye: Cy3 (3' terminal)): 0.378 ± 0.032; background-corrected fluorescence (dye: Cy5 (3' terminal)): 0.272 ± 0.016

For “TTTTTTGCTGCTGCTCATCATTTTTTTTTTTTTTTAAAGG [GGAAA]”, which background-corrected fluorescence (dye: Cy3 (3' terminal)) is on record?
Its background-corrected fluorescence is 0.646 ± 0.026.

And the background-corrected fluorescence (dye: Cy5 (3' terminal))?
The background-corrected fluorescence was 0.502 ± 0.032.

For “TTTTTTCAGCAGCAGCATGCTTTTTTTTTTTTTTTGTTTA [ATTTG]”, which background-corrected fluorescence (dye: Cy3 (3' terminal)) is on record?
Its background-corrected fluorescence is 0.521 ± 0.027.

What about the background-corrected fluorescence (dye: Cy5 (3' terminal)) of the same sequence?
The background-corrected fluorescence was 0.403 ± 0.022.

What does the source list for “TTTTTTGCGCATGATGATGCTTTTTTTTTTTTTTTATCCA [ACCTA]”?
background-corrected fluorescence (dye: Cy3 (3' terminal)): 0.476 ± 0.012; background-corrected fluorescence (dye: Cy5 (3' terminal)): 0.373 ± 0.038

With “TTTTTGCATGCGCATCAGCATTTTTTTTTTTTTTTTATGT [TGTAT]” as the sequence, how does the background-corrected fluorescence (dye: Cy3 (3' terminal)) read?
Its background-corrected fluorescence is 0.639 ± 0.033.

What about the background-corrected fluorescence (dye: Cy5 (3' terminal)) of the same sequence?
Its background-corrected fluorescence is 0.489 ± 0.046.

Which background-corrected fluorescence (dye: Cy3 (3' terminal)) does the source give for “TTTTTGCATGATCATGATGATTTTTTTTTTTTTTTTCGCC [CCGCT]” here?
Its background-corrected fluorescence is 0.462 ± 0.036.

What about the background-corrected fluorescence (dye: Cy5 (3' terminal)) of the same sequence?
Its background-corrected fluorescence is 0.337 ± 0.022.

Which background-corrected fluorescence (dye: Cy3 (3' terminal)) does the source give for “TTTTTTGCTGAGCATGATCATTTTTTTTTTTTTTTACTCG [GCTCA]” here?
Its background-corrected fluorescence is 0.571 ± 0.028.

What about the background-corrected fluorescence (dye: Cy5 (3' terminal)) of the same sequence?
The background-corrected fluorescence was 0.418 ± 0.03.

Which background-corrected fluorescence (dye: Cy3 (3' terminal)) does the source give for “TTTTTTGCGCAGCAGCATCATTTTTTTTTTTTTTTATTTG [GTTTA]” here?
Its background-corrected fluorescence is 0.5 ± 0.026.

And the background-corrected fluorescence (dye: Cy5 (3' terminal))?
The background-corrected fluorescence was 0.355 ± 0.025.

What does the source list for “TTTTTTCATCATGATGCTGATTTTTTTTTTTTTTTGGCAC [CACGG]”?
background-corrected fluorescence (dye: Cy3 (3' terminal)): 0.436 ± 0.03; background-corrected fluorescence (dye: Cy5 (3' terminal)): 0.336 ± 0.03

With “TTTTTTGCTGCGCAGCATGATTTTTTTTTTTTTTTAATTC [CTTAA]” as the sequence, how does the background-corrected fluorescence (dye: Cy3 (3' terminal)) read?
Its background-corrected fluorescence is 0.419 ± 0.015.

What about the background-corrected fluorescence (dye: Cy5 (3' terminal)) of the same sequence?
The background-corrected fluorescence was 0.297 ± 0.018.

Which background-corrected fluorescence (dye: Cy3 (3' terminal)) does the source give for “TTTTTTGATGCTGCTGCTGATTTTTTTTTTTTTTTCAAAC” here?
Its background-corrected fluorescence is 0.428 ± 0.03.

And the background-corrected fluorescence (dye: Cy5 (3' terminal))?
Its background-corrected fluorescence is 0.323 ± 0.031.

What does the source list for “TTTTTTGATCATCATGCTGCTTTTTTTTTTTTTTTCGGAA [AAGGC]”?
background-corrected fluorescence (dye: Cy3 (3' terminal)): 0.656 ± 0.032; background-corrected fluorescence (dye: Cy5 (3' terminal)): 0.548 ± 0.058

Which background-corrected fluorescence (dye: Cy3 (3' terminal)) does the source give for “TTTTTTCATGATGCTGCTGATTTTTTTTTTTTTTTGCAAC [CAACG]” here?
The background-corrected fluorescence was 0.469 ± 0.014.

And the background-corrected fluorescence (dye: Cy5 (3' terminal))?
Its background-corrected fluorescence is 0.319 ± 0.017.

Which results are given for “TTTTTTGCTGCTGATGCTGATTTTTTTTTTTTTTTAACAC [CACAA]”?
background-corrected fluorescence (dye: Cy3 (3' terminal)): 0.421 ± 0.035; background-corrected fluorescence (dye: Cy5 (3' terminal)): 0.306 ± 0.021

Which results are given for “TTTTTTGCTGCTCAGCATGCTTTTTTTTTTTTTTTAAGTA [ATGAA]”?
background-corrected fluorescence (dye: Cy3 (3' terminal)): 0.591 ± 0.019; background-corrected fluorescence (dye: Cy5 (3' terminal)): 0.493 ± 0.074

With “TTTTTGCAGCATGATGATGATTTTTTTTTTTTTTTTTCCC [CCCTT]” as the sequence, how does the background-corrected fluorescence (dye: Cy3 (3' terminal)) read?
The background-corrected fluorescence was 0.35 ± 0.0099.

What about the background-corrected fluorescence (dye: Cy5 (3' terminal)) of the same sequence?
The background-corrected fluorescence was 0.266 ± 0.016.

Which background-corrected fluorescence (dye: Cy3 (3' terminal)) does the source give for “TTTTTTGCGCATGATGATCATTTTTTTTTTTTTTTATCCG [GCCTA]” here?
The background-corrected fluorescence was 0.518 ± 0.023.

What about the background-corrected fluorescence (dye: Cy5 (3' terminal)) of the same sequence?
Its background-corrected fluorescence is 0.427 ± 0.035.

Which background-corrected fluorescence (dye: Cy3 (3' terminal)) does the source give for “TTTTTTGCTGAGCATGCGCATTTTTTTTTTTTTTTACTAT [TATCA]” here?
Its background-corrected fluorescence is 0.531 ± 0.012.

And the background-corrected fluorescence (dye: Cy5 (3' terminal))?
Its background-corrected fluorescence is 0.392 ± 0.021.

With “TTTTTGCATGATGATGATCATTTTTTTTTTTTTTTTCCCG [GCCCT]” as the sequence, how does the background-corrected fluorescence (dye: Cy3 (3' terminal)) read?
The background-corrected fluorescence was 0.509 ± 0.013.

What about the background-corrected fluorescence (dye: Cy5 (3' terminal)) of the same sequence?
Its background-corrected fluorescence is 0.381 ± 0.04.

With “TTTTTTGCTCATCATGCTGATTTTTTTTTTTTTTTAGGAC [CAGGA]” as the sequence, how does the background-corrected fluorescence (dye: Cy3 (3' terminal)) read?
Its background-corrected fluorescence is 0.479 ± 0.014.

What about the background-corrected fluorescence (dye: Cy5 (3' terminal)) of the same sequence?
Its background-corrected fluorescence is 0.383 ± 0.033.
